This note sets out measurements from paper PMC4808055 (Nature cell biology, 2015).

The target of this assay is T1, yeast Twinfilin (Twf1), full-length (1-332) (yeast, UniProt P53250 1-332).
T1 sequence: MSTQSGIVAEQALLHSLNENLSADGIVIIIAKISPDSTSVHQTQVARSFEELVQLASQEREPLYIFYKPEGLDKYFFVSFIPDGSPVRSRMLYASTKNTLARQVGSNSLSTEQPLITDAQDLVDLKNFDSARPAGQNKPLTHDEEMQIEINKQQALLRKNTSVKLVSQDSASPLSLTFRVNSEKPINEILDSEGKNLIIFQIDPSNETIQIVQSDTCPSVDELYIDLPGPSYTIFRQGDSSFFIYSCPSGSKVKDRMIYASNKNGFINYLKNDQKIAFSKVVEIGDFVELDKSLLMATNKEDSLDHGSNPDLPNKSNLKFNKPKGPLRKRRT
The assay is described as follows: negative-stain electron microscopy.

B1: N-Srv2 (1-259) (domain or fragment)
chain: MPDSKYTMQGYNLVKLLKRLEEATARLEDVTIYQEGYIQNKLEASKNNKPSDSGADANTTNEPSAENAPEVEQDPKCITAFQSYIGENIDPLVELSGKIDTVVLDALQLLKGGFQSQLTFLRAAVRSRKPDYSSQTFADSLRPINENIIKLGQLKESNRQSKYFAYLSALSEGAPLFSWVAVDTPVSMVTDFKDAAQFWTNRILKEYRESDPNAVEWVKKFLASFDNLKAYIKEYHTTGVSWKKDGMDFADAMAQSTKN
For B1, the binding result is “binds”.
